Measurements: publication PMC5501590

How the values were obtained:
[1] = Myc immunoblot of HEK293 whole cell lysates; details: glycan lost; control: wild type
[2] = Myc immunoblot of HEK293 medium, with/without Ni-NTA enrichment; details: glycan lost; control: wild type

Protein | expression_or_secretion [1] | expression_or_secretion [2]
murine IGSF1-2 (IGSF1 isoform 2): N43Q (protein) parent chain: MMLRTFTLLLLCIWLNPGMTSLAVESQPELWIESNYPQAPWENITLWCKSPSRVSSKFLLLKDNSQMTWIRPPYKTFQVSFFIGALTESNTGLYRCCYWKEKGWSKPSKILELEAPGQLPKPIFWIQAETPPLPGCNVNIFCHGWLQDLVFMLFKEGYTEPVDYQVPTGTMAIFSIDNLAPENEGVYICRTHIQMLPTLWSEPSNPLKLVVAGGCGHGCWHLTIVIPGIMAG | no change | no change
rat IGSF1-2 (IGSF1 isoform 2): N44Q (protein) parent chain: MMLRTFTLLLLCIWLNRGMTSMAAVESQPELWIESNYPQAPWENITLWCKSPSRVSSKFLLLKDNTQMTWIHPPYKTFQVSFFIGALTESNTGLYRCCYWNEKGWSKPSKILELEAPGQLPKPIFWIQAETPPFPGCNVNILCHGWLQDLVFMLFKEGYTEPIDYQVPTGTMAIFSIDNLAPENEGIYICRTHIQMLPTLWSEPSNPLKLVVAGGCAHGCWHLTIVIPGIMAG | no change | no change
